Drawing on PMC7111274, this text covers stoichiometry N for four substances.

What all share (assay): SEC
Assay [1] deals with PEDV 3CL^pro variant S138A (porcine epidemic diarrhea virus (FJZZ strain)).
Assay [2] has as its target PEDV 3CL^pro variant Q295A (porcine epidemic diarrhea virus (FJZZ strain)).
Assay [3] addresses PEDV 3CL^pro variant R4A (porcine epidemic diarrhea virus (FJZZ strain)).
The target of assay [4] is PEDV 3CL^pro variant R294A (porcine epidemic diarrhea virus (FJZZ strain)).

The term stoichiometry N denotes a count of units in the complex or per binding partner. On to PEDV 3CL^pro variant S138A (enzyme), for which the stoichiometry N in assay [1] stood at 2.
With PEDV 3CL^pro variant Q295A (enzyme), in assay [2], the stoichiometry N worked out at 2.
In turn, PEDV 3CL^pro variant R4A (enzyme) registered a stoichiometry N in assay [3] of 2.
In turn, PEDV 3CL^pro variant R294A (enzyme) registered a stoichiometry N in assay [4] of 2.
